In patent publication US20160159910A1 (Genentech, published 2016):

T1: human B7-H4 (human, UniProt Q7Z7D3 29-282)
T1 construct: On stably transfected 293 cells (recombinant) or on MX-1 / SKBR3 tumor cells (endogenous); the cell is named under assay; also called huB7-H4; hB7-H4
T1 sequence: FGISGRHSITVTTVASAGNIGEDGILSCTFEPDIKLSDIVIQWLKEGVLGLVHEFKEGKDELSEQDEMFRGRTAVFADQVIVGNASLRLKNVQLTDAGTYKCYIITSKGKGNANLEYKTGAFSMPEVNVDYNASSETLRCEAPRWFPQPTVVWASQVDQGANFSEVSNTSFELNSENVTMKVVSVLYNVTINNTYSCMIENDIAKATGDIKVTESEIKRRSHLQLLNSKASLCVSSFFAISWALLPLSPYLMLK

T2: cynomolgus monkey B7-H4 (cynomolgus monkey, UniProt Q7Z7D3 29-282 (human entry))
T2 construct: On stably transfected 293 cells; also called cyno B7-H4; recombinant cynomolgus monkey B7-H4
T2 chain: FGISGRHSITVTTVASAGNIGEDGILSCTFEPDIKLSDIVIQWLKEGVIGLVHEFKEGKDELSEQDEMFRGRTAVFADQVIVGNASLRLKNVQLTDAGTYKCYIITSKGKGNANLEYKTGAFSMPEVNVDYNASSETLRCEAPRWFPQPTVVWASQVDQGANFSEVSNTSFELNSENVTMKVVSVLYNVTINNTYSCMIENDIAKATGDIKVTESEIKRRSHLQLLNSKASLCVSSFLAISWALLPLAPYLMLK

T3: rat B7-H4 (rat, UniProt Q501W4 29-282)
T3 construct: On stably transfected 293 cells; also called recombinant rat B7-H4
T3 sequence: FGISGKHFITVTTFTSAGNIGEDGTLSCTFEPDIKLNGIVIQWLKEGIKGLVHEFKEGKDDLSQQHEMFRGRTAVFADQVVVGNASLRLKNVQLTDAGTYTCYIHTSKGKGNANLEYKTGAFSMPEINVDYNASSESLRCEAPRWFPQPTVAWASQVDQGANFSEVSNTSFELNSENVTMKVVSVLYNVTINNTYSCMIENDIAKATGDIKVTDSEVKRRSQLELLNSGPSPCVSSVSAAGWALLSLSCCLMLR

T4: mouse B7-H4 (mouse, UniProt Q7TSP5 29-283)
T4 construct: On stably transfected 293 cells; also called muB7-H4; recombinant mouse B7-H4
T4 sequence: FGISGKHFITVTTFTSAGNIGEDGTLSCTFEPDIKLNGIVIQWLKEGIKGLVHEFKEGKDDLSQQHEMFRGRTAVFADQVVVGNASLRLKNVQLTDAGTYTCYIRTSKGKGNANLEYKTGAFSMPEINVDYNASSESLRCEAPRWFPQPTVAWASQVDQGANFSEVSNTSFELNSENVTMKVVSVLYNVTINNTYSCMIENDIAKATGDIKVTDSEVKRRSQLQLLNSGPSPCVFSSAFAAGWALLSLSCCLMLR

T5: human B7-H4 S114A glycosylation mutant (human, UniProt Q7Z7D3 29-282)
T5 construct: Full-length human B7-H4 membrane construct with S114 changed to alanine to prevent N-linked glycosylation at N112-S114; transiently expressed on 293 cells; also called mutated S114A human B7-H4; recombinant human B7-H4 S114A
T5 sequence: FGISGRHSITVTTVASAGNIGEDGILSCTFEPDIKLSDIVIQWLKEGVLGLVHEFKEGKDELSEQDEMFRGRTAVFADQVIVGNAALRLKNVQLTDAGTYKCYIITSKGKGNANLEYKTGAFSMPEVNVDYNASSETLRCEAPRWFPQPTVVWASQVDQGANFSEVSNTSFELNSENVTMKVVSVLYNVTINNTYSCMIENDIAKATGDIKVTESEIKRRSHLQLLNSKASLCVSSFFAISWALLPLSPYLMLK

T6: soluble B7-H4 (Ig-V; G28-V157)-Fc fusion protein (human, UniProt Q7Z7D3 28-157)
T6 construct: Engineered soluble protein; also called B7-H4-(Ig-V)-hIgG1 Fc fusion protein; soluble B7-H4 IgV-Fc fusion protein; not shown: human IgG1 Fc
T6 sequence: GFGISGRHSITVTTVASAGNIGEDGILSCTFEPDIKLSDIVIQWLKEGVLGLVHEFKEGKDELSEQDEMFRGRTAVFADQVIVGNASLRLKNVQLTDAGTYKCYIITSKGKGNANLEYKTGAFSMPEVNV


Legend:
human B7-H4 [1] = biological target: T1, human B7-H4; assay: FACS titration on 293 cells expressing recombinant human B7-H4 (panel '293-human B7-H4', upper block), Dylight-650 goat anti-human IgG, geometric mean fluorescence
Description: (§1) The fluorescent signal was acquired with a BD FACS Calibur and EC₅₀ values were determined with the Graph Pad program Prism 4.

cynomolgus monkey B7-H4 [2] = biological target: T2, cynomolgus monkey B7-H4; assay: FACS titration on 293 cells expressing recombinant cynomolgus B7-H4 (panel '293-cyno B7-H4', upper block), geometric mean fluorescence
Description: as §1

human B7-H4 [3] = biological target: T1, human B7-H4; assay: FACS titration on MX-1 tumor cells, endogenous human B7-H4 (panel 'MX-1 tumor cell line', upper block), geometric mean fluorescence
Description: as §1

human B7-H4 [4] = biological target: T1, human B7-H4; assay: Scatchard analysis, 125I-antibody radioligand cell binding on MX-1 tumor cells
Description: (§2) Competition assay mixtures of 50 μL volume containing a fixed concentration of [I¹²⁵] labeled antibody and decreasing concentrations of serially diluted, unlabeled antibody were placed into 96-well plates. […] Cells were detached from the flask using Sigma Cell Dissociation Solution and were washed with binding buffer, which consisted of Dulbecco's Modified Eagle Medium (DMEM) with 1% bovine serum albumin (BSA), […] and 0.1% sodium azide. The washed cells were added to the 96 well plates at a density of 100,000 cells in 0.2 mL of binding buffer. The final concentration of the [I¹²⁵] labeled antibody in each well was ˜250 pM. The final concentration of the unlabeled antibody in the competition assay ranged from 1000 nM through ten 2-fold dilution steps to a 0 nM buffer-only assay. Competition assays were carried out in triplicate. Competition assays were incubated for 2 hours at room temperature. After the 2-hour incubation, the competition assays were transferred to a Millipore Multiscreen filter plate (Billerica, Mass.) and washed 4 times with binding buffer to separate the free from bound [I¹²⁵] labeled antibody. The filters were counted on a Wallac Wizard 1470 gamma counter (PerkinElmer Life and Analytical Sciences Inc.; Wellesley, Mass.). The binding data was evaluated using NewLigand software (Genentech), which uses the fitting algorithm of Munson and Robard to determine the binding affinity of the antibody (Munson and Robard 1980).

human B7-H4 [5] = biological target: T1, human B7-H4; assay: Scatchard analysis, 125I-antibody radioligand cell binding on stably transfected 293 cells
Description: as §2

rat B7-H4 [6] = biological target: T3, rat B7-H4; assay: as above
Description: as §2

mouse B7-H4 [7] = biological target: T4, mouse B7-H4; assay: as above
Description: as §2

cynomolgus monkey B7-H4 [8] = biological target: T2, cynomolgus monkey B7-H4; assay: as above
Description: as §2

[9] = biological target: T5, human B7-H4 S114A glycosylation mutant; assay: FACS on 293 cells transfected with S114A human B7-H4 (glycosylation independence)
mouse B7-H4 [10] = biological target: T4, mouse B7-H4; assay: FACS titration on 293 cells expressing recombinant mouse B7-H4 (panel '293-mouse B7-H4', upper block), geometric mean fluorescence
Description: as §1

[11] = biological target: T6, soluble B7-H4 (Ig-V; G28-V157)-Fc …; assay: FACS competition: soluble B7-H4 (Ig-V)-Fc against dye-labelled 22C10 on 293 cells expressing human B7-H4
cynomolgus monkey B7-H4 [12] = biological target: T2, cynomolgus monkey B7-H4; assay: FACS titration on 293 cells expressing recombinant cynomolgus B7-H4 (panel '293-cyno B7-H4', lower block), geometric mean fluorescence
Description: as §1

human B7-H4 [13] = biological target: T1, human B7-H4; assay: FACS titration on MX-1 tumor cells, endogenous human B7-H4 (panel 'MX-1 tumor cell line', lower block), geometric mean fluorescence
Description: as §1

mouse B7-H4 [14] = biological target: T4, mouse B7-H4; assay: FACS titration on 293 cells expressing recombinant mouse B7-H4 (panel '293-mouse B7-H4', lower block), geometric mean fluorescence
Description: as §1

human B7-H4 [15] = biological target: T1, human B7-H4; assay: Scatchard analysis on MX-1 cells; the table puts the affinity of 8.7 nM beside the parent antibody's 7.8 nM
Description: as §2, with “After the 2-hour incubation, the competition assays were transferred to a Millipore Multiscreen filter plate (Billerica, Mass.) and washed 4 times with binding buffer to separate the free from bound [I¹²⁵] labeled antibody.” left out

human B7-H4 [16] = biological target: T1, human B7-H4; assay: FACS titration on 293 cells expressing recombinant human B7-H4 (panel '293-human B7-H4', lower block), Dylight-650 goat anti-human IgG, geometric mean fluorescence
Description: as §1

human B7-H4 [17] = biological target: T1, human B7-H4; assay: Scatchard analysis on MX-1 cells; the table puts the affinity of 10 nM beside the parent antibody's 4.9 nM
Description: as §2, with “After the 2-hour incubation, the competition assays were transferred to a Millipore Multiscreen filter plate (Billerica, Mass.) and washed 4 times with binding buffer to separate the free from bound [I¹²⁵] labeled antibody.” left out

rat B7-H4 [18] = biological target: T3, rat B7-H4; assay: Scatchard on stable cell line expressing recombinant B7-H4 (footnote 1 of the table)
Description: Competition assay mixtures of 50 μL volume containing a fixed concentration of [I¹²⁵] labeled antibody and decreasing concentrations of serially diluted, unlabeled antibody were placed into 96-well plates. […] Cells were detached from the flask using Sigma Cell Dissociation Solution and were washed with binding buffer, which consisted of Dulbecco's Modified Eagle Medium (DMEM) with 1% bovine serum albumin (BSA), 300 mM human IgG and 0.1% sodium azide. The washed cells were added to the 96 well plates at a density of 100,000 cells in 0.2 mL of binding buffer. The final concentration of the [I¹²⁵] labeled antibody in each well was ˜250 pM. The final concentration of the unlabeled antibody in the competition assay ranged from 1000 nM through ten 2-fold dilution steps to a 0 nM buffer-only assay. Competition assays were carried out in triplicate. Competition assays were incubated for 2 hours at room temperature.

Binder | EC50 (human B7-H4 [1]) [µg/mL] | EC50 (cynomolgus monkey B7-H4 [2]) [µg/mL] | EC50 (human B7-H4 [3]) [µg/mL] | Kd (human B7-H4 [4]) [nM] | Kd (human B7-H4 [5]) [nM] | Kd (rat B7-H4 [6]) [nM] | Kd (mouse B7-H4 [7]) [nM] | Kd (cynomolgus monkey B7-H4 [8]) [nM] | fold binding over the isotype control [9] [fold] | EC50 (mouse B7-H4 [10]) [µg/mL] | binding result [11] | EC50 (cynomolgus monkey B7-H4 [12]) [µg/mL] | EC50 (human B7-H4 [13]) [µg/mL] | EC50 (mouse B7-H4 [14]) [µg/mL] | Fold to Parent mAb (human B7-H4 [15]) | EC50 (human B7-H4 [16]) [µg/mL] | Fold to Parent mAb (human B7-H4 [17]) | binding result (rat B7-H4 [18])
chimeric antibody ch22C10 (antibody, human IgG1, V domains shown, also called ch2210; parental 22C10 antibody) VH: QVQLQQPGAELVKPGTSVKLSCKASGYTFTNFWIHWVIQRPGQGLEWIGEIDPSDSYTNYNQKFKGKATLTVDKSSNTAYMQLSSLTSEDSAVYYCSREITTVDYWGQGTTLTVSS VL: QIVLTQSPTIMSASPGEKVTLTCSATSSISYMHWYQQKPGTSPKGWIYDTSKLAHGVPARFSGSGSGTSYSLTISSMEAEDAATYYCHQRRSYPFTFGSGTKLEIK | 1.2 | 0.41 | 0.35 | 4.9 | 6.6 | 5.7 | 18.3 | 4.6 | 100 | 0.66 | no binding |  |  |  |  |  |  | 
humanized 1D11.v1.8 (antibody, V domains shown, also called hu1D11.v1.8; h1D11.v1.8) VH: EVQLVQSGAEVKKPGASVKVSCKASGYTFTSYWIGWVRQAPGQGLEWIGDIYPGGGYTNYNEKFKGRATITRDTSTSTAYLELSSLRSEDTAVYYCARLDGSSYRGAMDSWGQGTLVTVSS VL: DIQMTQSPSSLSASVGDRVTITCKASQGFNKYVAWYQQKPGKAPKLLIYYTSTLQPGVPSRFSGSGSGRDYTLTISSLQPEDFATYYCLQYGNLLYAFGQGTKVEIKR |  |  |  | 8.7 |  |  |  |  |  |  |  | 0.18 | 0.53 | 1.32 | 0.89 | 2.29 |  | 
humanized 22C10.v2.8 (antibody, V domains shown, Assessed in the form of an IgG produced in 293 cells; also called hu22C10.v2.8; h22C10.v2.8) VH: EVQLVQSGAEVKKPGASVKVSCKASGYTFTNFWIHWVRQAPGQGLEWIGEIDPSDSYTNYNQKFKGRVTITRDTSTSTAYLELSSLRSEDTAVYYCAREITTVDYWGQGTLVTVSS VL: DIQMTQSPSSLSASVGDRVTITCSATSSISYMHWYQQKPGKAPKGLIYDTSKLAHGVPSRFSGSGSGTDFTLTISSLQPEDFATYYCHQRRSYPFTFGQGTKVEIK | 1.44 | 1.19 | 0.73 | 10 |  |  |  |  |  | 0.97 |  |  |  |  |  |  | 0.49 | 
chimeric antibody ch32D6 (antibody, human IgG1, V domains shown, also called antibody 32D6) VH: EVQLQQSGPDLVKPGASVKISCKASGYSFTGYYIHWMKQSHGKSLEWIGRVNPNNGDPIYNQKFRGKAILTVDQSSNTAYMELRSLTSEASAVYYCARVLFYYGSPFAYWGQGTLVTVSA VL: DIVMTQSPSSLIVTAGEKVTMSCRSSQSLFDSGSQRNYLTWFHQKPGRPPKLLIYWASTRESGVPDRFTGSGSGTDFTLTISSVQTEDLAVYFCQNDYSFPFTFGSGTKLEEK |  |  |  |  | 4.8 |  |  | 3.1 | 100 |  |  |  |  |  |  |  |  | no binding
